This data set concerns the molecule itself. Put plainly: AUC; sedimentation velocity, 60000 rpm, 20°C, buffer F (50 mM Na2HPO4-NaH2PO4/pH 7.5), protein at 0.6 and 1.0 mg/mL, absorption at 238 nm.

A word on the stoichiometry N: it is the number of molecules, sites or subunits per partner or assembly.

B1: Mth10b from Methanobacterium thermoautotrophicum ΔH (natural protein, UniProt O27527 2-91, looked up)
chain: SEENVVYIGNKPVMNYVLAVVTQMNGGTSEVILKARGIAISRAVDVAEIVRNRFIPDIQIENIDICTEEIIGNEGTATNVSAIEIQLRKD
notes: Mth10b, Sac10b family protein of Methanobacterium thermoautotrophicum ΔH, gene MTH1483; whole gene cloned with primers from the start codon to the stop codon; No tag (pET11a, NdeI/BamHI); also called MTH1483; source: Escherichia coli BL21 (DE3), pET11a, purified (Q Sepharose Fast Flow, Phenyl Sepharose High Performance, Resource-S)
As to B1, the “stoichiometry N” value was found to be 2.

For the origin of these results see paper PMC3097224, “Mth10b, a Unique Member of the Sac10b Family, Does Not Bind Nucleic Acid” (PLoS ONE, 2011).
